Results published in patent publication US20110182887A1 (AstraZeneca / MedImmune, published 2011).
Values belong to the binder of their own block, whether it stands above or below them.

How the values were obtained:
[1] = target: T1, human CD22 (hCD22) expressed on the cell surface (human, UniProt P20273 20-847); assay: BHK-CD22 cell ELISA, COS-7 supernatant
T1 construct: whole, on cells; One molecule is used for all cell-surface formats; also called human CD22 antigen; BHK-CD22

[2] = target: hCD22 (ligand immobilised on the BIAcore CM5 sensor chip) (human, UniProt P20273 20-687, limits assumed); assay: SPR (BIAcore 3000), hCD22 immobilised on CM5 chip, IgG injected, 1:1 model
Protocol: Binding affinity of HB22.7 and RHOv2ACD/RKA were determined on a BIAcore 3000 instrument (BIAcore, Inc., Uppsala, Sweden). The ligand, hCD22, was prepared at 50 nM in 10 mM NaOAc, pH4 buffer. It was injected onto an EDC/NHS-activated CM5 sensor chip (BIAcore, Inc. Uppsala, Sweden) using a standard immobilization protocol. Following this, any unreacted active ester moieties were quenched using 1M Et-NH2 (ethanolamine; coupling reagents purchased from BIAcore, Inc.). A total of 535 and 689 RUs hCD22 remained bound to two sensor chip surfaces used in these experiments. Separately, a blank surface was prepared on each sensor chip using the identical protocol (minus protein). The blank surfaces were used as a reference cell in the experiments, and served to correct for both non-specific binding and some housekeeping artifacts.
For the kinetic experiments, HB22.7 and RHOv2ACD/RKA were prepared as two dilution series, starting at 22 nM and 100 nM, then diluted three- and two-fold, respectively, down to final concentrations of 0.03 nM and 0.39 nM in HBS-EP buffer (BIAcore, Inc., consisting of the following: 10 mM HEPES buffer, pH7.4, 150 mM NaCl, 3 mM EDTA, and 0.005% P20). Each concentration of IgG was then injected over both the CD22 and reference cell surfaces, which are connected in series. Between injections, surfaces were regenerated with a 1-minute injection of 3M MgCl2.

[3] = target: T1, human CD22 (hCD22) expressed on the …; assay: flow cytometry on CHO cells transfected with human CD22, labelled secondary antibody, median fluorescence intensity
Protocol: CHO cells expressing hCD22 were prepared by transfection with a plasmid encoding human CD22 using the Lipofectamine procedure. […] Cells were incubated on ice for 20 minutes then washed and resuspended in PBS followed by addition of secondary antibody, either a goat anti-human (GAH) or GAM-F(ab)′2 anti human-RPE at a 1:1000 dilution. Cells were incubated on ice for an additional 10 minutes and binding activity was evaluated via FACS analysis on a Guava flow cytometer.

[4] = target: T1, human CD22 (hCD22) expressed on the …; assay: cell ELISA on BHK cells expressing human CD22, goat anti-mouse Ig-HRP, OD 450 nm
Excerpt: The BHK-CD22 binding assay was used to test the binding activity of the chHB227 antibody in the transiently transformed COS 7 culture supernatants. A goat anti-human Ig-HRP conjugate (Sigma Chemicals) was used to detect binding of chHB22.7 mAb while a goat anti-mouse Ig-HRP conjugate (Southern Biotechnology) was used to detect binding of the parental mouse HB22.7 mAb. The bound HRP conjugates were exposed to the substrate o-phenyldiamine (OPD) and the resulting products detected at 450 nm.

[5] = target: T1, human CD22 (hCD22) expressed on the …; assay: competitive cell ELISA on CD22; increasing mouse HB22.7 mixed with 250 ng/ml chHB227 (competitor); mouse HB22.7 titrated against 250 ng/ml chimeric antibody
Protocol: To confirm the binding effectiveness of the RHF+RKC humanized antibody, a competitive ELISA was performed with increasing amounts of the mouse HB22.7 antibody mixed with 250 ng/ml of chimeric or humanized antibody.

fold better binding than HB227RHB with the same chimeric light chain [1]: ~2 fold
B1: HB227RHC heavy chain + chimeric HB22.7 light chain (chL) (antibody, human IgG1, V domains shown)
VH: QVQLQESGPALVKPTQTLTLTCTFSGFSLSDYGVNWIRQPPGKALEWLGIIWGDGRTDYNSALKSRLSISKDNSKNQVVLRMTNVDPVDTATYFCARAPGNRAMEYWGQGTVVTVSS
VL: SIVMTQTPKFLLVSAGDRITLTCKASQSVTNDVAWYQQKPGQSPKLLIYYASNRYTGVPDRFTGSGYGTDFTFTISTVQAEDLAVYFCQQDYRSPWTFGGGTKLEI
notes: Human IgG1 kappa, COS-7 supernatant; The VH entry may include the leader; also called RHC+chL

Kd [2]: 14 nM
koff [2]: 0.00017 s⁻¹
kon [2]: 12000 M⁻¹ s⁻¹
EC50 (read off the curve) [3]: ~0.2 ug mAb per 10e6 cells
EC50 (read off the curve) [4]: ~0.09 µg/mL
IC50 [5]: ~4 µg/mL
B2: parental mouse monoclonal anti-CD22 antibody HB22.7 (antibody, V domains shown)
VH: QVQLKESGPGLVAPSQSLSITCTVSGFSLSDYGVNWVRQIPGKGLEWLGIIWGDGRTDYNSALKSRLNISKDNSKSQVFLKMNSLKADDTARYYCARAPGNRAMEYWGQGTSVTVS
VL: B1 VL
notes: Mouse antibody from hybridoma ATCC HB11347; It was labelled with Alexa-fluor in some cell assays; also called mouse HB22.7; murine HB22.7
